# T1: Tie1-EpoR chimeric receptor (UniProt P14753+P35590)
# T1 construct: the PCR amplified extracellular part of human Tie1 (bp 37-2316 of X60975); expressed in transfected cells
# T1 sequence (P35590+P14753 with tags, fused parts or gaps): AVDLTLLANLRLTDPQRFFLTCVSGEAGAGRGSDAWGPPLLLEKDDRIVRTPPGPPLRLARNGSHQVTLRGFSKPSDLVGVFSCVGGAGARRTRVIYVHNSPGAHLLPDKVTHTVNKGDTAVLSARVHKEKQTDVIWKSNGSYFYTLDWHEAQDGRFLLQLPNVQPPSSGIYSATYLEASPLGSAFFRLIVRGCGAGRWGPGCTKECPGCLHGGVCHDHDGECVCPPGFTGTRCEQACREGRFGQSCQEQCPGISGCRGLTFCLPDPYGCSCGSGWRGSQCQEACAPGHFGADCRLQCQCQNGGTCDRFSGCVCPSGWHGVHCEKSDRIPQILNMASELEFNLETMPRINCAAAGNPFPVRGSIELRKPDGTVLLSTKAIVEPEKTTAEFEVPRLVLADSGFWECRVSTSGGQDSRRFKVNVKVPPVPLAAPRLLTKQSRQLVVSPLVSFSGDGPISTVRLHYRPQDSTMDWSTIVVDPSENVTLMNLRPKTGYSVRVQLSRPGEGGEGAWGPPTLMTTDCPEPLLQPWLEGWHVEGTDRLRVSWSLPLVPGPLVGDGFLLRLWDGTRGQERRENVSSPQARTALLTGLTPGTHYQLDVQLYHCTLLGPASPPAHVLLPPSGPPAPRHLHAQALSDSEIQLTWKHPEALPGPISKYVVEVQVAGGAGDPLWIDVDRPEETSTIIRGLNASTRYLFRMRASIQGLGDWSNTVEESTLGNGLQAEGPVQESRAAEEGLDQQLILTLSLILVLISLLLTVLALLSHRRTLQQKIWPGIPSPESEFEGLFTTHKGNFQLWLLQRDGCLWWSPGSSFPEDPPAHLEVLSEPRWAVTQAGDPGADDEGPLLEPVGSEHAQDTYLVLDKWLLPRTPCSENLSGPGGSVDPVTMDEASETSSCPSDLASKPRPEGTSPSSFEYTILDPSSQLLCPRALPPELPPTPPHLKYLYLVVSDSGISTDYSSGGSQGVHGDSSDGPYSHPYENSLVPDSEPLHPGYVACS
# B1: E3: human anti-Tie1 antibody from Fab phage library; HC SEQ ID NO:114, LC SEQ ID NO:116 (antibody, V domains shown)
# VH: EVQLLESGGGLVQPGGSLRLSCAASGFTFSMYGMVWVRQAPGKGLEWVSVISPSGGNTGYADSVKGRFTISRDNSKNTLYLQVNSLRAEDTAVYYCARAPRGYSYGYYYWGQGTLVTVSSASTKGPSVFPLAPSSKSTSGG
# VL: DIQMTQSPLSLSASVGDRVTITCRASQGIGHYLAWYQQKPGKVPKLLIYTASTLQSGVPSRFSGSGSGTDFTLTINSLQPEDVATYYCQQFNSYPHTFGQGTRLDIK
# modifications: Synthetically generated peptide
# Target: T1, Tie1-EpoR chimeric receptor
# Test: Ba/F3 bioassay (Tie1/EpoR chimeric BaF3 cell assay), MTT viability
# Type: cell-based, human
# Settings: for survival/viability of Tie1-EpoR Ba/F3 cells: antibody alone, no IL-3
# Summary of the method: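 Ba/F3 cells expressing human Tie1 extracellular domain fused to mouse EpoR transmembrane/cytoplasmic domains, seeded at 50 000 cells/well with anti-Tie1 antibodies for 48 h. Non-expressing Zeocin-resistant pools served as controls. Survival read by MTT (0.5 mg/ml, 2 h), SDS/HCl lysis overnight at 37 °C, absorbance at 540 nm.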
molecule,measurement,setting,value
B1,concentration giving almost maximal viability in Tie1-EpoR cell survival assays,Tie1-EpoR Ba/F3 cells,50 ng/mL
same,Average MTT activity in BaF3 cell assay,"Tie1-EpoR Ba/F3 cells, 48 h, absorbance 540 nm, E3 IgG 100 ng/ml together with 100 or 500 ng/ml of the other antibody",0.61
same,survival/viability of Tie1-EpoR Ba/F3 cells,,functions as a Tie1 activating antibody
same,survival/viability of Tie1-EpoR Ba/F3 cells,listed as E3 IgG,able to promote survival
same,viability of EpoR Ba/F3 cells used as a control,control cells not expressing Tie1-EpoR,not affected
